Assay results taken from publication PMC5435990 (Nucleic Acids Research, 2017).
Values joined by “and” are separate entries in the source; they are usually repeats but may differ in a detail not shown here. Equal entries are not always repeated.

Key:
[1] = biological target: the molecule itself; assay: scanning Number and Brightness
[2] = biological target: the molecule itself; assay: SEC
[3] = biological target: the molecule itself; assay: scanning Number and Brightness; remark: listed apart in the source

B1: GFP-Mrr D203A catalytic mutant (enzyme)
chain: MTVPTYDKFIEPVLRYLATKPEGAAARDVHEAAADALGLDDSQRAKVITSGQLVYKNRAGWAHDRLKRAGLSQSLSRGKWCLTPAGFDWVASHPQPMTEQETNHLAFAFVNVKLKSRPDAVDLDPKADSPDHEELAKSSPDDRLDQALKELRDAVADEVLENLLQVSPSRFEVIVLDVLHRLGYGGHRDDLQRVGGTGDGGIAGVISLDKLGLEKVYVQAKRWQNTVGRPELQAFYGALAGQKAKRGVFITTSGFTSQARDFAQSVEGMVLVDGERLVHLMIENEVGVSSRLLKVPKLDMDYFE
B1 was tested. Which “stoichiometry N” value [1] did it give?
The value was 2.

B2: Strep-tagged GFP-Mrr (enzyme, Escherichia coli K-12, UniProt P24202 1-304, looked up)
chain: MTVPTYDKFIEPVLRYLATKPEGAAARDVHEAAADALGLDDSQRAKVITSGQLVYKNRAGWAHDRLKRAGLSQSLSRGKWCLTPAGFDWVASHPQPMTEQETNHLAFAFVNVKLKSRPDAVDLDPKADSPDHEELAKSSPDDRLDQALKELRDAVADEVLENLLQVSPSRFEVIVLDVLHRLGYGGHRDDLQRVGGTGDGGIDGVISLDKLGLEKVYVQAKRWQNTVGRPELQAFYGALAGQKAKRGVFITTSGFTSQARDFAQSVEGMVLVDGERLVHLMIENEVGVSSRLLKVPKLDMDYFE
Which “stoichiometry N” value [2] does the source give for B2 here?
Its value is 4 and 2.

B3: GFP-Mrr fusion protein (Mrr, Methylated adenine Recognition and Restriction, fused with GFPmut2) (enzyme)
chain: MTVPTYDKFIEPVLRYLATKPEGAAARDVHEAAADALGLDDSQRAKVITSGQLVYKNRAGWAHDRLKRAGLSQSLSRGKWCLTPAGFDWVASHPQPMTEQETNHLAFAFVNVKLKSRPDAVDLDPKADSPDHEELAKSSPDDRLDQALKELRDAVADEVLENLLQVSPSRFEVIVLDVLHRLGYGGHRDDLQRVGGTGDGGIDGVISLDKLGLEKVYVQAKRWQNTVGRPELQAFYGALAGQKAKRGVFITTSGFTSQARDFAQSVEGMVLVDGERLVHLMIENEVGVSSRLLKVPKLDMDYFE
How did the “stoichiometry N” value [3] turn out when B3 was run?
The value was 2.
